Experimental data reported in patent publication US20040018971A1 (published 2004).

Key:
HLA-A*1101 = HLA-A*1101 (human); assay: inhibition of 125I-labelled probe peptide binding to purified HLA-A*1101, gel filtration; relative to standard peptide 940.06
HLA-A*0301 = HLA-A*0301 (human); assay: inhibition of 125I probe peptide binding to purified HLA
HLA-A*3101 = HLA-A*3101 (human); assay: as above
HLA-A*6801 = HLA-A*6801 (human); assay: as above
HLA-B*3501 = HLA-B*3501 (human); assay: competition vs 125I-labeled standard peptide, purified HLA
HLA-B*5301 = HLA-B*5301 (human); assay: as above
HLA-B*0702 = HLA-B*0702 (human); assay: as above
HLA-B*5101 = HLA-B*5101 (human); assay: as above
HLA-B*5401 = HLA-B*5401 (human); assay: as above
HLA-A*2401 = target: T1, HLA-A*2401 (human); assay: inhibition of 125I-labelled standard peptide binding to purified HLA, gel filtration
T1 construct: Purified HLA class I molecule (kind: MHC class I); also called A*2402

In the case of PLTCSPQPEY [HER2/neu A11 motif peptide, position 1130, 10 amino acids], the relative binding ratio (HLA-A*1101) is reported as 0.0002 ratio (IC50 of standard peptide / IC50 of test peptide).

In the case of PSGVKPDLSY (also called HER2/neu 601-610) [HER2/neu A11 motif peptide, position 601, 10 amino acids], the relative binding ratio (HLA-A*1101) is reported as 0.0003 ratio (IC50 of standard peptide / IC50 of test peptide).

PTHDPSPLQR (also called HER2/neu 1102-1111) [HER2/neu A11 motif peptide, position 1102, 10 amino acids] was tested, and the relative binding ratio (HLA-A*1101) was 0.0001 ratio (IC50 of standard peptide / IC50 of test peptide).

For QALLHTANR (also called HER2/neu 491-499) [HER2/neu A11 motif peptide, position 491, 9 amino acids], the relative binding ratio (HLA-A*1101) was 0.001 ratio (IC50 of standard peptide / IC50 of test peptide).

In the case of QLVTQLMPY (also called HER2/neu 795-803) [HER2/neu A11 motif peptide, position 795, 9 amino acids], the relative binding ratio (HLA-A*1101) is reported as 0.0039 ratio (IC50 of standard peptide / IC50 of test peptide).

QVCTGTDMK (also called HER2/neu 24-32) [HER2/neu A11 motif peptide, position 24, 9 amino acids] was tested, and the relative binding ratio (HLA-A*1101) was 0.052 ratio (IC50 of standard peptide / IC50 of test peptide).

For QVRQVPLQR (also called HER2/neu 90-98) [HER2/neu A11 motif peptide, position 90, 9 amino acids], the relative binding ratio (HLA-A*1101) was 0.0005 ratio (IC50 of standard peptide / IC50 of test peptide).

RTVCAGGCAR (synthetic peptide) [Her2/neu.217] was tested, and the IC50 (HLA-A*0301) was 1620 nM, the IC50 (HLA-A*3101) was 40 nM and the IC50 (HLA-A*6801) was 320 nM.

B1: Her2/neu.669 (AA 9) (peptide)
peptide: VVFGILIKR
notes: synthetic peptide; the 9-mer and the 10-mer carry the same source label Her2/neu.669
Binder B1 has an IC50 (HLA-A*0301) of 100 nM, an IC50 (HLA-A*3101) of 13 nM and an IC50 (HLA-A*6801) of 4 nM.

B2: Her2/neu.642.F1 (peptide)
peptide: FPAEQRASPL
notes: 10-mer analog of the HER2/neu peptide starting at position 642
For B2, the IC50 (HLA-B*3501) was 248 nM, the IC50 (HLA-B*5301) was 8460 nM and the IC50 (HLA-B*0702) was 1.4 nM. It also gave an IC50 (HLA-B*5101) of 859 nM and an IC50 (HLA-B*5401) of 286 nM.

B3: Her2/neu.649.F1, 10-mer (peptide)
peptide: FPLTSIISAV
notes: 10-mer analog of the HER2/neu peptide starting at position 649; same label as the 9-mer in r40
With B3 the IC50 (HLA-B*3501) was 300 nM, the IC50 (HLA-B*5301) was 2910 nM and the IC50 (HLA-B*0702) was 220 nM. The IC50 (HLA-B*5101) was 63 nM and the IC50 (HLA-B*5401) was 1.2 nM.

B4: Her2/neu.649.F1I9 (peptide)
peptide: FPLTSIISI
notes: 9-mer analog of the HER2/neu peptide starting at position 649
B4 showed an IC50 (HLA-B*3501) of 118 nM, an IC50 (HLA-B*5301) of 28 nM and an IC50 (HLA-B*0702) of 212 nM. It also gave an IC50 (HLA-B*5401) of 1.5 nM.

B5: Her2/neu.649.F1I11 (peptide)
peptide: FPLTSIISAVI
notes: 11-mer analog of the HER2/neu peptide starting at position 649
B5 gave an IC50 (HLA-B*3501) of 96 nM, an IC50 (HLA-B*5301) of 66 nM and an IC50 (HLA-B*5101) of 4.6 nM. The IC50 (HLA-B*5401) was 2.2 nM.

B6: Her2/neu.706.F1, 9-mer (peptide)
peptide: FPNQAQMRI
notes: 9-mer analog of the HER2/neu peptide starting at position 706; same label as the 10-mer in r51
In the case of B6, the IC50 (HLA-B*3501) is reported as 108 nM, the IC50 (HLA-B*5301) is reported as 18 nM and the IC50 (HLA-B*0702) is reported as 68 nM. The IC50 (HLA-B*5401) was 4.5 nM.

B7: Her2/neu.760.F1, 9-mer (peptide)
peptide: FPKANKEIL
notes: 9-mer analog of the HER2/neu peptide starting at position 760; same label as the 8-mer in r52
Binder B7 has an IC50 (HLA-B*3501) of 4500 nM, an IC50 (HLA-B*0702) of 6.7 nM and an IC50 (HLA-B*5101) of 190 nM. It also gave an IC50 (HLA-B*5401) of 77 nM.

For AFGTVYKGIWI (also called Her2/neu.730 (11-mer)) [HER2/neu peptide, position 730, 11 amino acids], the relative binding ratio (HLA-A*2401) was 0.0008 ratio (IC50 of standard peptide / IC50 of test peptide).

In the case of AFSPAFDNL (also called Her2/neu.1212 (9-mer)) [HER2/neu peptide, position 1212, 9 amino acids], the relative binding ratio (HLA-A*2401) is reported as 0.0011 ratio (IC50 of standard peptide / IC50 of test peptide).

With AMPNQAQMRI (also called Her2/neu.705 (10-mer)) [HER2/neu peptide, position 705, 10 amino acids] the relative binding ratio (HLA-A*2401) was 0.0002 ratio (IC50 of standard peptide / IC50 of test peptide).

For AMPNQAQMRIL (also called Her2/neu.705 (11-mer)) [HER2/neu peptide, position 705, 11 amino acids], the relative binding ratio (HLA-A*2401) was -0.0003 ratio (IC50 of standard peptide / IC50 of test peptide).

With AWPDSLPDL (also called Her2/neu.414 (9-mer)) [HER2/neu peptide, position 414, 9 amino acids] the relative binding ratio (HLA-A*2401) was 0.0041 ratio (IC50 of standard peptide / IC50 of test peptide).

With AYSLTLQGL (also called Her2/neu.440 (9-mer)) [HER2/neu peptide, position 440, 9 amino acids] the relative binding ratio (HLA-A*2401) was 0.13 ratio (IC50 of standard peptide / IC50 of test peptide).

For AYSLTLQGLGI (also called Her2/neu.440 (11-mer)) [HER2/neu peptide, position 440, 11 amino acids], the relative binding ratio (HLA-A*2401) was 0.023 ratio (IC50 of standard peptide / IC50 of test peptide).

For CFVHTVPW (also called Her2/neu.475 (8-mer)) [HER2/neu peptide, position 475, 8 amino acids], the relative binding ratio (HLA-A*2401) was 0.019 ratio (IC50 of standard peptide / IC50 of test peptide).

With CFVHTVPWDQL (also called Her2/neu.475 (11-mer)) [HER2/neu peptide, position 475, 11 amino acids] the relative binding ratio (HLA-A*2401) was 0.0003 ratio (IC50 of standard peptide / IC50 of test peptide).

In the case of CMQIAKGMSYL (also called Her2/neu.826 (11-mer)) [HER2/neu peptide, position 826, 11 amino acids], the relative binding ratio (HLA-A*2401) is reported as -0.0003 ratio (IC50 of standard peptide / IC50 of test peptide).

CYGLGMEHL (also called Her2/neu.342 (9-mer)) [HER2/neu peptide, position 342, 9 amino acids] was tested, and the relative binding ratio (HLA-A*2401) was 0.018 ratio (IC50 of standard peptide / IC50 of test peptide).

With CYQDTILW (also called Her2/neu.162 (8-mer)) [HER2/neu peptide, position 162, 8 amino acids] the relative binding ratio (HLA-A*2401) was 0.012 ratio (IC50 of standard peptide / IC50 of test peptide).

With CYQDTILWKDI (also called Her2/neu.162 (11-mer)) [HER2/neu peptide, position 162, 11 amino acids] the relative binding ratio (HLA-A*2401) was 0.0016 ratio (IC50 of standard peptide / IC50 of test peptide).

In the case of DFGLARLL (also called Her2/neu.863 (8-mer)) [HER2/neu peptide, position 863, 8 amino acids], the relative binding ratio (HLA-A*2401) is reported as 0.0005 ratio (IC50 of standard peptide / IC50 of test peptide).

In the case of DFGLARLLDI (also called Her2/neu.863 (10-mer)) [HER2/neu peptide, position 863, 10 amino acids], the relative binding ratio (HLA-A*2401) is reported as 0.0002 ratio (IC50 of standard peptide / IC50 of test peptide).

With EFAGCKKI (also called Her2/neu.363 (8-mer)) [HER2/neu peptide, position 363, 8 amino acids] the relative binding ratio (HLA-A*2401) was -0.0003 ratio (IC50 of standard peptide / IC50 of test peptide).

For EFAGCKKIF (also called Her2/neu.363 (9-mer)) [HER2/neu peptide, position 363, 9 amino acids], the relative binding ratio (HLA-A*2401) was 0.0003 ratio (IC50 of standard peptide / IC50 of test peptide).
